# Target: human TrkB on CHO cells (CHO-K1-hTrkB/pSRE-Luc) (human) (UniProt Q16620)
# Assay: cell-based or functional assay
# Sequence of human TrkB on CHO cells (CHO-K1-hTrkB/pSRE-Luc) (human) (Q16620 32-822): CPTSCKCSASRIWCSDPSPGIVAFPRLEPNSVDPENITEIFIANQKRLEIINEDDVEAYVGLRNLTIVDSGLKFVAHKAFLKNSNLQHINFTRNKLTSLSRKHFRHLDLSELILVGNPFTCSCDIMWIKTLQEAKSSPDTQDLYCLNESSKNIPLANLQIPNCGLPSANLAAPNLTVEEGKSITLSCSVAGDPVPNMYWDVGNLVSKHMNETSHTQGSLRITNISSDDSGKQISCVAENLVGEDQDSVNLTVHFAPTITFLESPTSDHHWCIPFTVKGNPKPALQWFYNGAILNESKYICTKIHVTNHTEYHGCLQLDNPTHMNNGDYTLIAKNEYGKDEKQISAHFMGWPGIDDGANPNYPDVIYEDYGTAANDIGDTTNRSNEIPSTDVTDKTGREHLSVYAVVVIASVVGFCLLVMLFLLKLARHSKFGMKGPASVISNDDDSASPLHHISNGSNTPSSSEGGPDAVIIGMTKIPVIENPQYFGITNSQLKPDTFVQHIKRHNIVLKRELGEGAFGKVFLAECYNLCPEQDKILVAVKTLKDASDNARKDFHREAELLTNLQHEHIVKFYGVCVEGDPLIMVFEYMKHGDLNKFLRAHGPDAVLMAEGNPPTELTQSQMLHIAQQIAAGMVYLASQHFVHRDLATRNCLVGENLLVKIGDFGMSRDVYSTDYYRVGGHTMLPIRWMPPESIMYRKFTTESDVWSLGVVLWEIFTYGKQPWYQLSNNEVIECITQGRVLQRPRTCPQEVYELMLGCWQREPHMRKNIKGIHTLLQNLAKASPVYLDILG
row,"BDNF activity in TrkBluciferase assay, EC50 [nM]",Binder
1,3,pre-pro-BDNF-T7-His6 (ligand) APMKEANIRGQGGLAYPGVRTHGTLESVNGPKAGSRGLTSLADTFEHVIEELLDEDQKVRPNEENNKDADLYTSRVMLSSQVPLEPPLLFLLEEYKNYLDAANMSMRVRRHSDPARRGELSVCDSISEWVTAADKKTAVDMSGGTVTVLEKVPVSKGQLKQYFYETKCNPMGYTKEGCRGIDKRHWNSQCRTTQSYVRALTMDSKKRIGWRFIRIDTSCVCTLTIKRGRGSGMASMTGGQQMGHHHHHH
2,0.36,pre-pro-BDNF(-RGD)-myc-His6 (ligand) APMKEANIRGQGGLAYPGVRTHGTLESVNGPKAGSRGLTSLADTFEHVIEELLDEDQKVRPNEENNKDADLYTSRVMLSSQVPLEPPLLFLLEEYKNYLDAANMSMRVRRHSDPARRGELSVCDSISEWVTAADKKTAVDMSGGTVTVLEKVPVSKGQLKQYFYETKCNPMGYTKEGCRGIDKRHWNSQCRTTQSYVRALTMDSKKRIGWRFIRIDTSCVCTLTIKGSGEQKLISEEDLGSGHHHHHH

# Target: human TrkB on CHO cells (CHO-K1-hTrkB/pSRE-Luc) (human) (UniProt Q16620)
# Assay: cell-based or functional assay
# Remark: another data set of the same source
Binder,"BDNF activity in TrkBluciferase assay, EC50 [nM]","BDNF activity in TrkBluciferase assay, EC50 [% or nM]","relative BDNF activity in TrkB luciferase assay, EC50 [%]"
pre-pro-BDNF(-RGR; K25N; G62N; Y63G)-T7-His6 (ligand) APMKEANIRGQGGLAYPGVRTHGTLESVNGPKAGSRGLTSLADTFEHVIEELLDEDQKVRPNEENNKDADLYTSRVMLSSQVPLEPPLLFLLEEYKNYLDAANMSMRVRRHSDPARRGELSVCDSISEWVTAADNKTAVDMSGGTVTVLEKVPVSKGQLKQYFYETKCNPMNGTKEGCRGIDKRHWNSQCRTTQSYVRALTMDSKKRIGWRFIRIDTSCVCTLTIKGSGMASMTGGQQMGHHHHHH,–,276%,–
pre-pro-BDNF(-RGR; Q79S)-T7-His6 (ligand) APMKEANIRGQGGLAYPGVRTHGTLESVNGPKAGSRGLTSLADTFEHVIEELLDEDQKVRPNEENNKDADLYTSRVMLSSQVPLEPPLLFLLEEYKNYLDAANMSMRVRRHSDPARRGELSVCDSISEWVTAADKKTAVDMSGGTVTVLEKVPVSKGQLKQYFYETKCNPMGYTKEGCRGIDKRHWNSSCRTTQSYVRALTMDSKKRIGWRFIRIDTSCVCTLTIKGSGMASMTGGQQMGHHHHHH,6.9,–,–
"pre-pro-BDNF(-RGR; G62N, Y63G, R81N)-T7-His6 (ligand) APMKEANIRGQGGLAYPGVRTHGTLESVNGPKAGSRGLTSLADTFEHVIEELLDEDQKVRPNEENNKDADLYTSRVMLSSQVPLEPPLLFLLEEYKNYLDAANMSMRVRRHSDPARRGELSVCDSISEWVTAADKKTAVDMSGGTVTVLEKVPVSKGQLKQYFYETKCNPMNGTKEGCRGIDKRHWNSQCNTTQSYVRALTMDSKKRIGWRFIRIDTSCVCTLTIKGSGMASMTGGQQMGHHHHHH",–,203%,–
pre-pro-BDNF(-RGR; T35N; G62N; Y63G)-T7-His6 (ligand) APMKEANIRGQGGLAYPGVRTHGTLESVNGPKAGSRGLTSLADTFEHVIEELLDEDQKVRPNEENNKDADLYTSRVMLSSQVPLEPPLLFLLEEYKNYLDAANMSMRVRRHSDPARRGELSVCDSISEWVTAADKKTAVDMSGGNVTVLEKVPVSKGQLKQYFYETKCNPMNGTKEGCRGIDKRHWNSQCRTTQSYVRALTMDSKKRIGWRFIRIDTSCVCTLTIKGSGMASMTGGQQMGHHHHHH,–,0.039 nM,–
"pre-pro-BDNF(-RGR; K25N, Q79T)-T7-His6 (ligand) APMKEANIRGQGGLAYPGVRTHGTLESVNGPKAGSRGLTSLADTFEHVIEELLDEDQKVRPNEENNKDADLYTSRVMLSSQVPLEPPLLFLLEEYKNYLDAANMSMRVRRHSDPARRGELSVCDSISEWVTAADNKTAVDMSGGTVTVLEKVPVSKGQLKQYFYETKCNPMGYTKEGCRGIDKRHWNSTCRTTQSYVRALTMDSKKRIGWRFIRIDTSCVCTLTIKGSGMASMTGGQQMGHHHHHH",–,0.21 nM,–
pre-pro(IgA)-BDNF(-RGR)-His6 (ligand) MTILFLTMVISYFGCMKAAPMKEANIRGQGGLAYPGVRTHGTLESVNGPKAGSRGLTSLADTFEHVIEELLDEDQKVRPNEENNKDADLYTSRVMLSSQVPLEPPLLFLLEEYKNYLDAANMSMGSVVAPPAPHSDPARRGELSVCDSISEWVTAADKKTAVDMSGGTVTVLEKVPVSKGQLKQYFYETKCNPMGYTKEGCRGIDKRHWNSQCRTTQSYVRALTMDSKKRIGWRFIRIDTSCVCTLTIKGSGHHHHHH,9.6,282%,–
pre-pro-BDNF(-RGR)-opsin(L)-His6 (ligand) APMKEANIRGQGGLAYPGVRTHGTLESVNGPKAGSRGLTSLADTFEHVIEELLDEDQKVRPNEENNKDADLYTSRVMLSSQVPLEPPLLFLLEEYKNYLDAANMSMRVRRHSDPARRGELSVCDSISEWVTAADKKTAVDMSGGTVTVLEKVPVSKGQLKQYFYETKCNPMGYTKEGCRGIDKRHWNSQCRTTQSYVRALTMDSKKRIGWRFIRIDTSCVCTLTIKGSGNGTEGPNFYVPFSNATGVVRHHHHHH,0.3,555%,10

# Results, then the binder that gave them:
"BDNF activity in TrkBluciferase assay, EC50 [nM]","BDNF activity in TrkBluciferase assay, EC50 [% or nM]","relative BDNF activity in TrkB luciferase assay, EC50 [%]",Binder
9.6,–,–,"pre-pro-BDNF, RGR deleted, GSG, C-terminal His6, R54A, IgA protease cleavage site (row 2 of Table 9) (ligand) APMKEANIRGQGGLAYPGVRTHGTLESVNGPKAGSAGLTSLADTFEHVIEELLDEDQKVRPNEENNKDADLYTSRVMLSSQVPLEPPLLFLLEEYKNYLDAANMSMGSVVAPPAPHSDPARRGELSVCDSISEWVTAADKKTAVDMSGGTVTVLEKVPVSKGQLKQYFYETKCNPMGYTKEGCRGIDKRHWNSQCRTTQSYVRALTMDSKKRIGWRFIRIDTSCVCTLTIKGSGHHHHHH"
9.6,–,–,pre-pro(His6-R54A-IgA)-BDNF(-RGR) (ligand) MTILFLTMVISYFGCMKAAPMKEANIHHHHHHAPMKEANIRGQGGLAYPGVRTHGTLESVNGPKAGSAGLTSLADTFEHVIEELLDEDQKVRPNEENNKDADLYTSRVMLSSQVPLEPPLLFLLEEYKNYLDAANMSMGSVVAPPAPHSDPARRGELSVCDSISEWVTAADKKTAVDMSGGTVTVLEKVPVSKGQLKQYFYETKCNPMGYTKEGCRGIDKRHWNSQCRTTQSYVRALTMDSKKRIGWRFIRIDTSCVCTLTIK
–,0.13 nM,–,"pre-pro-BDNF(-RGR; G62N, Y63G, Q79T)-T7-His6 (ligand) APMKEANIRGQGGLAYPGVRTHGTLESVNGPKAGSRGLTSLADTFEHVIEELLDEDQKVRPNEENNKDADLYTSRVMLSSQVPLEPPLLFLLEEYKNYLDAANMSMRVRRHSDPARRGELSVCDSISEWVTAADKKTAVDMSGGTVTVLEKVPVSKGQLKQYFYETKCNPMNGTKEGCRGIDKRHWNSTCRTTQSYVRALTMDSKKRIGWRFIRIDTSCVCTLTIKGSGMASMTGGQQMGHHHHHH"
–,0.069 nM,–,"pre-pro-BDNF(-RGR; T35N, G62N, Y63G, Q79T)-T7-His6 (ligand) APMKEANIRGQGGLAYPGVRTHGTLESVNGPKAGSRGLTSLADTFEHVIEELLDEDQKVRPNEENNKDADLYTSRVMLSSQVPLEPPLLFLLEEYKNYLDAANMSMRVRRHSDPARRGELSVCDSISEWVTAADKKTAVDMSGGNVTVLEKVPVSKGQLKQYFYETKCNPMNGTKEGCRGIDKRHWNSTCRTTQSYVRALTMDSKKRIGWRFIRIDTSCVCTLTIKGSGMASMTGGQQMGHHHHHH"
–,0.064 nM,–,"pre-pro-BDNF(-RGR; T35N, Q79T)-T7-His6 (ligand) APMKEANIRGQGGLAYPGVRTHGTLESVNGPKAGSRGLTSLADTFEHVIEELLDEDQKVRPNEENNKDADLYTSRVMLSSQVPLEPPLLFLLEEYKNYLDAANMSMRVRRHSDPARRGELSVCDSISEWVTAADKKTAVDMSGGNVTVLEKVPVSKGQLKQYFYETKCNPMGYTKEGCRGIDKRHWNSTCRTTQSYVRALTMDSKKRIGWRFIRIDTSCVCTLTIKGSGMASMTGGQQMGHHHHHH"
–,0.05 nM,–,"pre-pro-BDNF(-RGR; Q79T, R81N)-T7-His6 (ligand) APMKEANIRGQGGLAYPGVRTHGTLESVNGPKAGSRGLTSLADTFEHVIEELLDEDQKVRPNEENNKDADLYTSRVMLSSQVPLEPPLLFLLEEYKNYLDAANMSMRVRRHSDPARRGELSVCDSISEWVTAADKKTAVDMSGGTVTVLEKVPVSKGQLKQYFYETKCNPMGYTKEGCRGIDKRHWNSTCNTTQSYVRALTMDSKKRIGWRFIRIDTSCVCTLTIKGSGMASMTGGQQMGHHHHHH"
0.8,–,–,"pre-pro-BDNF(-RGR; R81N)-T7-His6 (ligand, N-glycan at the introduced site (degree of glycosylation ++)) APMKEANIRGQGGLAYPGVRTHGTLESVNGPKAGSRGLTSLADTFEHVIEELLDEDQKVRPNEENNKDADLYTSRVMLSSQVPLEPPLLFLLEEYKNYLDAANMSMRVRRHSDPARRGELSVCDSISEWVTAADKKTAVDMSGGTVTVLEKVPVSKGQLKQYFYETKCNPMGYTKEGCRGIDKRHWNSQCNTTQSYVRALTMDSKKRIGWRFIRIDTSCVCTLTIKGSGMASMTGGQQMGHHHHHH"
0.3,–,–,pre-pro-BDNF(-RGR)-opsin(S)-T7-His6 (ligand) APMKEANIRGQGGLAYPGVRTHGTLESVNGPKAGSRGLTSLADTFEHVIEELLDEDQKVRPNEENNKDADLYTSRVMLSSQVPLEPPLLFLLEEYKNYLDAANMSMRVRRHSDPARRGELSVCDSISEWVTAADKKTAVDMSGGTVTVLEKVPVSKGQLKQYFYETKCNPMGYTKEGCRGIDKRHWNSQCRTTQSYVRALTMDSKKRIGWRFIRIDTSCVCTLTIKGSGNGTEGPNFYVPFSNATGSGMASMTGGQQMGHHHHHH
0.3,–,–,pre-pro-BDNF(-RGR)-opsin(S)-His6 (ligand) APMKEANIRGQGGLAYPGVRTHGTLESVNGPKAGSRGLTSLADTFEHVIEELLDEDQKVRPNEENNKDADLYTSRVMLSSQVPLEPPLLFLLEEYKNYLDAANMSMRVRRHSDPARRGELSVCDSISEWVTAADKKTAVDMSGGTVTVLEKVPVSKGQLKQYFYETKCNPMGYTKEGCRGIDKRHWNSQCRTTQSYVRALTMDSKKRIGWRFIRIDTSCVCTLTIKGSGNGTEGPNFYVPFSNATGSGHHHHHH
1.2,–,–,pre-pro(R54A)-BDNF(-RGR)-His6 (ligand) HSDPARRGELSVCDSISEWVTAADKKTAVDMSGGTVTVLEKVPVSKGQLKQYFYETKCNPMGYTKEGCRGIDKRHWNSQCRTTQSYVRALTMDSKKRIGWRFIRIDTSCVCTLTIKGSGHHHHHH
1.2,–,–,pre-pro(His6-R54A)-BDNF(-RGR) (ligand) MTILFLTMVISYFGCMKAAPMKEANIHHHHHHAPMKEANIRGQGGLAYPGVRTHGTLESVNGPKAGSAGLTSLADTFEHVIEELLDEDQKVRPNEENNKDADLYTSRVMLSSQVPLEPPLLFLLEEYKNYLDAANMSMRVRRHSDPARRGELSVCDSISEWVTAADKKTAVDMSGGTVTVLEKVPVSKGQLKQYFYETKCNPMGYTKEGCRGIDKRHWNSQCRTTQSYVRALTMDSKKRIGWRFIRIDTSCVCTLTIK
